From US20060204492A1 (published 2006)
Positions count from the first letter of the chain named. Each block holds one molecule with its values, some of them ahead of it.

Tests used:
[1] = target: integrin αvβ3 on cells (M21 human melanoma cells; human umbilical vein endothelial cells) (human) (UniProt P06756); experiment: cell-based or functional assay
[2] = target: T1, integrin αvβ3, purified from human placenta (human, UniProt P06756 31-1048; P05106 27-788); experiment: ELISA titration of Fab on immobilized αvβ3
T1 construct: mature; Native heterodimer, immobilized on ELISA plates or on the BIAcore chip; biotinylated in capture lift and capture ELISA screens; also called αvβ3 receptor; vitronectin receptor
T1 sequence (P06756 31-1048, form in doubt, chain 1 of 2): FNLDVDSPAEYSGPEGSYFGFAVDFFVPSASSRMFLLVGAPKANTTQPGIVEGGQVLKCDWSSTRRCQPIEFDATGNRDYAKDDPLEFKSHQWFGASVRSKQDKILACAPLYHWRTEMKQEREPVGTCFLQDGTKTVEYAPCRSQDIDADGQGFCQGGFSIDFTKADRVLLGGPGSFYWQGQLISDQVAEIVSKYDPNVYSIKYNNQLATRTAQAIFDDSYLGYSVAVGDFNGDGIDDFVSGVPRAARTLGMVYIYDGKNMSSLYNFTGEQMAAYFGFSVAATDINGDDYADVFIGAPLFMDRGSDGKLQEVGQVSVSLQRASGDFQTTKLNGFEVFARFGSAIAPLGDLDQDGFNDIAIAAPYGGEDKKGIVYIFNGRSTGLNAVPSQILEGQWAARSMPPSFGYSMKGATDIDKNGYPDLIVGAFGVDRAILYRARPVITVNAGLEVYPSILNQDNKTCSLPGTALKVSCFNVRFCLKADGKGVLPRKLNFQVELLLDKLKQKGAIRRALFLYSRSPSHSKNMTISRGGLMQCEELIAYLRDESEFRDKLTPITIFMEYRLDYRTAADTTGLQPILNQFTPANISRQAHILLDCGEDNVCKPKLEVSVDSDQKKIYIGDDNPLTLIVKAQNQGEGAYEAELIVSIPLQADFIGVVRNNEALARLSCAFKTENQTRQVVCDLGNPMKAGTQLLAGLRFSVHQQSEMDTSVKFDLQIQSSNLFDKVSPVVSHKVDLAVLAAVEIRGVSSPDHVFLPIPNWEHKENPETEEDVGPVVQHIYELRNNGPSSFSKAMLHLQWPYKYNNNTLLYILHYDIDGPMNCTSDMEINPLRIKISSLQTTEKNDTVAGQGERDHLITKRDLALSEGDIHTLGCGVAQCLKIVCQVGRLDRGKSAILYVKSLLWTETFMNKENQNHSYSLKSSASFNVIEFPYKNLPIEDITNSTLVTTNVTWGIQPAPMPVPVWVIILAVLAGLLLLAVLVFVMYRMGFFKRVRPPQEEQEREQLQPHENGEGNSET
T1 sequence (P05106 27-788, form in doubt, chain 2 of 2): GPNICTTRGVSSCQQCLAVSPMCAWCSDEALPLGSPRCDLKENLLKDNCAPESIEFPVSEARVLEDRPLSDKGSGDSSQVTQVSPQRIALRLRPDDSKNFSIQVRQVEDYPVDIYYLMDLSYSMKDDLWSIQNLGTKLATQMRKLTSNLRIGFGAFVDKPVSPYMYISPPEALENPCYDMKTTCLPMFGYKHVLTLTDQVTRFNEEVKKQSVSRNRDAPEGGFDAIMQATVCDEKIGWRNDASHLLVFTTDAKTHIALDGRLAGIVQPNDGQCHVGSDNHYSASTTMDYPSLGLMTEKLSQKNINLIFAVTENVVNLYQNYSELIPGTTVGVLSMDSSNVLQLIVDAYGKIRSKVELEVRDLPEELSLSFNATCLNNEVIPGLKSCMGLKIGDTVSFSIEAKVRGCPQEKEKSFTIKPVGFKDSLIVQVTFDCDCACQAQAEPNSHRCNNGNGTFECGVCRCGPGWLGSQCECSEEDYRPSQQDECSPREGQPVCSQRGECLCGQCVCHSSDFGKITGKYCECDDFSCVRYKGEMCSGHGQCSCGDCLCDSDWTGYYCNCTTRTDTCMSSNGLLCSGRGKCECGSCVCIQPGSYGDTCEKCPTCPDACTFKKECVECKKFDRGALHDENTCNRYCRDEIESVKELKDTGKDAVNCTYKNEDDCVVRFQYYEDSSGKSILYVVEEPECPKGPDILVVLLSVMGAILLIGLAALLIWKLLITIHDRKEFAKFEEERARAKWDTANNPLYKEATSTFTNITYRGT
Method: (§1) Just prior to use, the plates were washed two times and were then incubated 1 h at 25° C. with various dilutions of Fab. […] All dilutions and washes were in 50 mM Tris-HCl, pH 7.4, 100 mM NaCl, 2 mM CaCl₂, and 1 mM MgCl₂.

[3] = target: T1, integrin αvβ3, purified from human …; experiment: SPR (BIAcore), purified Fab over immobilized αvβ3
Method: The affinities of select variants were further characterized by utilizing surface plasmon resonance (BIAcore) to measure the association and dissociation rates of purified Fab with immobilized αᵥβ₃. […] To obtain association rate constants (kₒₙ), the binding rate at five different Fab concentrations, ranging from 5-40 μg/ml in 50 mM Tris-HCl, pH 7.4, 100 mM NaCl, 2 mM CaCl₂, and 1 mM MgCl₂, was determined at a flow rate of 10 μl/min. Dissociation rate constants (koff) were the average of five measurements obtained by analyzing the dissociation phase at an increased flow rate (40 μl/min). Sensorgrams were analyzed with the BIAevaluation 2.1 program (Pharmacia). Residual Fab was removed after each measurement with 10 mM HCl, 2 mM CaCl₂ and 1 mM MgCl₂.

[4] = target: T1, integrin αvβ3, purified from human …; experiment: SPR (BIAcore), purified Fab over immobilized αvβ3; remark: listed apart in the source
[5] = target: T1, integrin αvβ3, purified from human …; experiment: ELISA titration of bacterial lysate Fab on immobilized αvβ3, inflection points
Method: as §1

integrin αvβ5 = target: T2, integrin αvβ5 (human, UniProt P06756 31-1048; P18084 24-799); experiment: ELISA on coated integrin, goat anti-human IgG-alkaline phosphatase
T2 construct: mature
T2 sequence (P06756 31-1048, chain 1 of 2): as the sequence (P06756 31-1048, form in doubt, chain 1 of 2) above
T2 sequence (P18084 24-799, chain 2 of 2): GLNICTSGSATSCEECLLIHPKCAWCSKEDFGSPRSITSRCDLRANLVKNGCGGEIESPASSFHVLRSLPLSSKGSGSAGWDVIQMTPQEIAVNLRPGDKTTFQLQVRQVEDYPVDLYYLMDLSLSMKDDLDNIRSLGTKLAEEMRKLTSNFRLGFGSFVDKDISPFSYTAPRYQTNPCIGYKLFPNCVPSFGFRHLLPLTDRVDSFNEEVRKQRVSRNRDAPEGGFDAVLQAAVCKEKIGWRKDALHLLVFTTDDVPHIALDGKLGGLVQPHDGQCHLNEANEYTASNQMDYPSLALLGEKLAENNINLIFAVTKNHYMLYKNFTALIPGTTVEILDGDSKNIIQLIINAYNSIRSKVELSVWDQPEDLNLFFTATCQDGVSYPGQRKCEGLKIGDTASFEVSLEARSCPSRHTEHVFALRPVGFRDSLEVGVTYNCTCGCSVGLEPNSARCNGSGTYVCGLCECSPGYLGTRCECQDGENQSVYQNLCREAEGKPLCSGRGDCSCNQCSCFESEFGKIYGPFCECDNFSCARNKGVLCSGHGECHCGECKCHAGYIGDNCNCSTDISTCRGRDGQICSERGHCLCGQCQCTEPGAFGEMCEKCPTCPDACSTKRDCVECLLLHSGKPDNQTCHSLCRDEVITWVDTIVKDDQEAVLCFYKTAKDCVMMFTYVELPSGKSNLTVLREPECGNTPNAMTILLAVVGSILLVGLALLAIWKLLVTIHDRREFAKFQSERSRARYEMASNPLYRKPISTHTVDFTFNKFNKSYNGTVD
Method: Antibody binding activity was assessed by ELISA using a goat anti-human IgG-alkaline phosphatase conjugate.

Sequence of integrin αvβ3 on cells (M21 human melanoma cells; human umbilical vein endothelial cells) (human) (P06756 31-1048, chain 1 of 2): as the sequence (P06756 31-1048, form in doubt, chain 1 of 2) above
Sequence of integrin αvβ3 on cells (M21 human melanoma cells; human umbilical vein endothelial cells) (human) (P05106 27-788, chain 2 of 2, further chain): as the sequence (P05106 27-788, form in doubt, chain 2 of 2) above

B3: LM609 grafted antibody variant N92 (Fab, V domains shown)
VH: QVQLVESGGGVVQPGRSLRLSCAASGFTFSSYDMSWVRQAPGKGLEWVAKVSSGGGSTYYLDTVQGRFTISRDNSKNTLYLQMNSLRAEDTAVYYCARHNYGSFAYWGQGTTVTVSS
VL: EIVLTQSPATLSLSPGERATLSCQASQSISNHLHWYQQRPGQAPRLLIRYRSQSISGIPARFSGSGSGTDFTLTISSLEPEDFAVYYCQQSNSWPHTFGGGTKVEIK
notes: Fab; also called LM609 grafted antibody having Asn at position 92 of light chain CDR3
- fold enhanced binding over parent LM609 grafted antibody [2]: > 3 fold
- Kd [3]: 5.7 nM
- koff [3]: 0.00135 s⁻¹
- kon [3]: 236000 M⁻¹ s⁻¹

B4: LM609 grafted antibody variant L30 (Fab, V domains shown)
VH: B3 VH with S30L
VL: B3 VL with N92G
notes: Fab
- fold enhanced binding over parent LM609 grafted antibody [2]: > 3 fold

B5: LM609 grafted antibody variant G102 (Fab, V domains shown)
VH: B3 VH with Y106G
VL: B3 VL with N92G
notes: Fab; also called clone G102
- fold enhanced affinity over LM609 grafted antibody [4]: 2.2 fold
- fold enhanced binding over parent LM609 grafted antibody [2]: > 3 fold
- Kd [3]: 12.5 nM
- koff [3]: 0.00201 s⁻¹
- kon [3]: 161000 M⁻¹ s⁻¹

B6: LM609 grafted antibody variant S51 (Fab, V domains shown)
VH: B3 VH
VL: B3 VL with R51S, N92G
notes: Fab
- fold enhanced binding over parent LM609 grafted antibody [2]: > 3 fold

B7: LM609 grafted antibody variant Y100 (Fab, V domains shown)
VH: B3 VH with F104Y
VL: B3 VL with N92G
notes: Fab
- fold enhanced binding over parent LM609 grafted antibody [2]: > 3 fold
- Kd [3]: 14.3 nM
- koff [3]: 0.00251 s⁻¹
- kon [3]: 175000 M⁻¹ s⁻¹
- fold improved affinity over LM609 grafted antibody [5]: > 3 fold

B12: LM609 grafted antibody variant K52 (Fab, V domains shown)
VH: B3 VH with S52K
VL: B3 VL with N92G
notes: Fab
- fold enhanced binding over parent LM609 grafted antibody [2]: > 3 fold
- Kd [3]: 12.2 nM
- koff [3]: 0.00218 s⁻¹
- kon [3]: 178000 M⁻¹ s⁻¹

B13: LM609 grafted antibody variant L96 (Fab, V domains shown)
VH: B3 VH
VL: B3 VL with N92G, H96L
notes: Fab
- fold enhanced binding over parent LM609 grafted antibody [2]: > 3 fold
- Kd [3]: 9.2 nM
- koff [3]: 0.00223 s⁻¹
- kon [3]: 243000 M⁻¹ s⁻¹

B14: LM609 grafted antibody variant E102 (Fab, V domains shown)
VH: B3 VH with Y106E
VL: B3 VL with N92G
notes: Fab
- fold enhanced binding over parent LM609 grafted antibody [2]: > 3 fold

B18: LM609 grafted antibody variant D102 (Fab, V domains shown)
VH: B3 VH with Y106D
VL: B3 VL with N92G
notes: Fab
- fold enhanced binding over parent LM609 grafted antibody [2]: > 3 fold
- Kd [3]: 3.5 nM
- koff [3]: 0.00097 s⁻¹
- kon [3]: 276000 M⁻¹ s⁻¹

B20: LM609 grafted antibody variant F32 (Fab, V domains shown)
VH: B3 VH
VL: B3 VL with H32F, N92G
notes: Fab
- fold slower dissociation than LM609 grafted antibody [4]: 11.8 fold
- fold enhanced binding over parent LM609 grafted antibody [2]: > 3 fold
- Kd [3]: 2.5 nM
- koff [3]: 0.00042 s⁻¹
- kon [3]: 167000 M⁻¹ s⁻¹

B22: Vitaxin (antibody, human IgG1, V domains shown)
VH: B3 VH
VL: B3 VL with R49K, N92G
notes: Human IgG1 constant region and human kappa constant region; also called huLM609M13 1135-4; grafted LM609
- binding result (integrin αvβ5): no binding (tested: over 1.0 mg/ml)

Second part, the molecule after the results:

- inhibition of M21 cell adhesion to fibrinogen: inhibitory concentration for 50% maximal adhesion [1]: 50 ng/mL
- inhibition of vitronectin-induced migration of human umbilical vein endothelial cells (transwell), 5 µg/ml antibody [1]: 60%
Molecule: monoclonal antibody LM609

- fold enhanced binding over parent LM609 grafted antibody [2]: > 3 fold
- Kd [3]: 8.3 nM
- koff [3]: 0.00227 s⁻¹
- kon [3]: 275000 M⁻¹ s⁻¹
B1: LM609 grafted antibody variant A102 (Fab, V domains shown)
VH: B3 VH with Y106A
VL: B3 VL with N92G
notes: Fab

- fold enhanced binding over parent LM609 grafted antibody [2]: > 3 fold
B2: LM609 grafted antibody variant M102 (Fab, V domains shown)
VH: B3 VH with Y106M
VL: B3 VL with N92G
notes: Fab

- fold enhanced binding over parent LM609 grafted antibody [2]: > 3 fold
B8: LM609 grafted antibody variant W29 (Fab, V domains shown)
VH: B3 VH with F29W
VL: B3 VL with N92G
notes: Fab

- fold enhanced binding over parent LM609 grafted antibody [2]: > 3 fold
B9: LM609 grafted antibody variant T92 (Fab, V domains shown)
VH: B3 VH
VL: B3 VL with N92T
notes: Fab

- fold enhanced binding over parent LM609 grafted antibody [2]: > 3 fold
B10: LM609 grafted antibody variant T27 (Fab, V domains shown)
VH: B3 VH with F27T
VL: B3 VL with N92G
notes: Fab

- fold slower dissociation than LM609 grafted antibody [4]: 1.6 fold
- fold enhanced binding over parent LM609 grafted antibody [2]: > 3 fold
- Kd [3]: 13.8 nM
- koff [3]: 0.00303 s⁻¹
- kon [3]: 220000 M⁻¹ s⁻¹
B11: LM609 grafted antibody variant H97 (Fab, V domains shown)
VH: B3 VH with Y101H
VL: B3 VL with N92G
notes: Fab

- fold increase in affinity over parent LM609 grafted antibody [4]: 12.5 fold
- fold enhanced binding over parent LM609 grafted antibody [2]: > 3 fold
- Kd [3]: 2.2 nM
- koff [3]: 0.00048 s⁻¹
- kon [3]: 218000 M⁻¹ s⁻¹
- fold improved affinity over LM609 grafted antibody [5]: > 3 fold
B15: LM609 grafted antibody variant Y101 (Fab, V domains shown)
VH: B3 VH with A105Y
VL: B3 VL with N92G
notes: Fab

- fold enhanced binding over parent LM609 grafted antibody [2]: > 3 fold
- Kd [3]: 5.8 nM
- koff [3]: 0.00185 s⁻¹
- kon [3]: 318000 M⁻¹ s⁻¹
B16: LM609 grafted antibody variant P60 (Fab, V domains shown)
VH: B3 VH with L61P
VL: B3 VL with N92G
notes: Fab

- fold enhanced binding over parent LM609 grafted antibody [2]: > 3 fold
B17: LM609 grafted antibody variant Q96 (Fab, V domains shown)
VH: B3 VH
VL: B3 VL with N92G, H96Q
notes: Fab

- fold higher affinity than LM609 grafted antibody [4]: 4.6 fold
- fold enhanced binding over parent LM609 grafted antibody [2]: > 3 fold
- Kd [3]: 6 nM
- koff [3]: 0.00144 s⁻¹
- kon [3]: 242000 M⁻¹ s⁻¹
- fold improved affinity over LM609 grafted antibody [5]: > 3 fold
B19: LM609 grafted antibody variant S102 (Fab, V domains shown)
VH: B3 VH with Y106S
VL: B3 VL with N92G
notes: Fab; also called clone S102

- fold enhanced binding over parent LM609 grafted antibody [2]: > 3 fold
- Kd [3]: 5.8 nM
- koff [3]: 0.00143 s⁻¹
- kon [3]: 246000 M⁻¹ s⁻¹
B21: LM609 grafted antibody variant T102 (Fab, V domains shown)
VH: B3 VH with Y106T
VL: B3 VL with N92G
notes: Fab
